Assay results as given in patent US20150197559A1 (University of California, published 2015).

Key:
BoNT/B1 [1] = biological target: T1, BoNT/B1 (Clostridium botulinum, UniProt P10844 2-1291); assay: flow cytometry, yeast-displayed scFv, soluble toxin
T1 sequence: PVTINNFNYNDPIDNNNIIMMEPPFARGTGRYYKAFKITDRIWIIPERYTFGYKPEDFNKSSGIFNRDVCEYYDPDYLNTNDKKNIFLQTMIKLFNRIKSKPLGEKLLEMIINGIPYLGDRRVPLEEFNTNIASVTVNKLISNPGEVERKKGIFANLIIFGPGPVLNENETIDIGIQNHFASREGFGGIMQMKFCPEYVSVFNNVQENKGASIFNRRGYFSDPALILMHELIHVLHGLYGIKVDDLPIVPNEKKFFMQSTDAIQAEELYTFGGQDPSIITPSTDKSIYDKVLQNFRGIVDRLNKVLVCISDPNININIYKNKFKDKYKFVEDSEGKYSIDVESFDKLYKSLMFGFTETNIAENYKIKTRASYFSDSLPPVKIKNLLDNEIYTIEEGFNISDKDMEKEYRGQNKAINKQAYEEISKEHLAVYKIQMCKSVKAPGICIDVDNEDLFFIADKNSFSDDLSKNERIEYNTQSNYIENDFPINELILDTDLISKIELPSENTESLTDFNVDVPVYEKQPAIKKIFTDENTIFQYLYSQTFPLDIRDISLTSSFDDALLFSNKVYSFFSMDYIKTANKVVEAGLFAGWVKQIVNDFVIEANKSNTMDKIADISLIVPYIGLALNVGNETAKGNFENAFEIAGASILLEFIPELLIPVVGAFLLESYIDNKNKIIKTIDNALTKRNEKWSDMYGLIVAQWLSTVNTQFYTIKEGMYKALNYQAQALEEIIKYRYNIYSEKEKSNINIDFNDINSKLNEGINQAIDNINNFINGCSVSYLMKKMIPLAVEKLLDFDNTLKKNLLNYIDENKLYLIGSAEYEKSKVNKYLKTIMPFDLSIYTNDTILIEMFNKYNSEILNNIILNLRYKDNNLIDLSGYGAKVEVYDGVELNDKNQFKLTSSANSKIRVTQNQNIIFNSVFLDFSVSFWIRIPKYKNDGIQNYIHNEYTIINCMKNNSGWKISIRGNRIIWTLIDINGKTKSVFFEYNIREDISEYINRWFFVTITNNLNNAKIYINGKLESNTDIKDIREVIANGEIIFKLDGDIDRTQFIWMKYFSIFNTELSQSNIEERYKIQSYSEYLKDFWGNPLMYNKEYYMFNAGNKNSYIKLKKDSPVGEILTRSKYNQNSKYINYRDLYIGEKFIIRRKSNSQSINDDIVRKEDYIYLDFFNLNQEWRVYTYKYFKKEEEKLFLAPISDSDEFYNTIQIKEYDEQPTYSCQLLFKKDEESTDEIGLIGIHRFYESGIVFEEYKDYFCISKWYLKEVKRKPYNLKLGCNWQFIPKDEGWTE

BoNT/B1 [2] = biological target: T1, BoNT/B1; assay: as above; remark: listed apart in the source
BoNT/B1 [3] = biological target: T1, BoNT/B1; assay: KinExA flow fluorimetry, IgG in solution
BoNT/B1 [4] = biological target: T1, BoNT/B1; assay: flow cytometry, yeast-displayed parental scFv
BoNT/B1 [5] = biological target: T1, BoNT/B1; assay: flow cytometry, yeast-displayed scFv, soluble toxin; remark: listed apart in the source
BoNT/B1 [6] = biological target: T1, BoNT/B1
BoNT/A1 (Hall hyper) = BoNT/A1 (Hall hyper) (Clostridium botulinum, UniProt P0DPI0 2-1296); assay: KinExA flow fluorimetry, IgG in solution
BoNT/B3 = BoNT/B3 (Clostridium botulinum); assay: flow cytometry, yeast-displayed scFv, soluble toxin
BoNT/B1 [7] = biological target: T1, BoNT/B1; assay: yeast-displayed Fab against parental B6 scFv, flow cytometry
BoNT/B1 [8] = biological target: T1, BoNT/B1; assay: flow cytometry, yeast-displayed Fab, soluble toxin
BoNT/B1 [9] = biological target: T1, BoNT/B1; assay: flow cytometry, yeast-displayed Fab, soluble toxin; remark: listed apart in the source
BoNT/B1 [10] = biological target: T1, BoNT/B1; assay: KinExA flow fluorimetry, IgG in solution; remark: listed apart in the source

B1: 2B23 scFv (scFv)
scFv: EVQLLESGGGLVQPGGSLRLSCAASGFTFSNYPMSWVRQAPGKGLAWVSSLTASGDNTFYADSVKGRFTISRDNSNNTLYLQMHSLRAEDTAVYYCAKALVGRYDISTGYYRPVMDSWGQGTLVTVSSGGGGSGGGGSGGGGSDIQMTQSPPSLSASVGDRVTITCRTSQGFTSALAWYQQKPGEPPKLLIYDASKLESGVPSRFSGSGSGTNFALTISSLQPEDFATYFCQQSNSYPLTFGGGTKVEIK
For B1, the Kd (BoNT/B1 [1]) was 80 pM and the Kd (BoNT/B1 [2]) was 79 pM.

B2: 2B23 IgG (antibody, V domains shown)
VH: EVQLLESGGGLVQPGGSLRLSCAASGFTFSNYPMSWVRQAPGKGLAWVSSLTASGDNTFYADSVKGRFTISRDNSNNTLYLQMHSLRAEDTAVYYCAKALVGRYDISTGYYRPVMDSWGQGTLVTVSS
VL: DIQMTQSPPSLSASVGDRVTITCRTSQGFTSALAWYQQKPGEPPKLLIYDASKLESGVPSRFSGSGSGTNFALTISSLQPEDFATYFCQQSNSYPLTFGGGTKVEIKR
For B2, the Kd (BoNT/B1 [3]) was 38.2 pM.

B3: B6 scFv (scFv)
scFv: QVQLVQSGAEVKKPGESLVISCKASGDKDTFTSFWIAWVRQMPGKGLEWMGIIYAGDSDTRYSPSFQGHVNISVDRSTNTAYLQWSSLKASDTAMYYCARHDSRYKYFYFGMDVWGQGTTVTVSSGGGGSGGGGSGGGGSDVVMTQSPSSLSASVGDRITITCQAGQDISNFLNWYQQKPGKAPKLLIRDASNLETGVPSRFSGGGSGTHFTFTISSLHPEDIATYFCQQYDNLPYTFGQGTKLEIK
With B3 the Kd (BoNT/B1 [4]) was 2710 pM and the Kd (BoNT/B1 [5]) was 2710 pM.

B4: 1B22 IgG (antibody, V domains shown)
VH: QVQLQESGSRLVKPSQTLSLTCGVSGGSISSSSYSWSWIRQTPGKGLEWIGYIYHSGSTYYNPSLKSRVTMSVDKSRNQFSLNMSSVTAADTAVYYCARTAFYYENTGPIRCYLDFWGQGTLVTVSS
VL: DIQMTQSPSTLSASIGDRVTISCRASQSIQSWLAWYQQRPGEAPKLLIYSASTLQTGVPSRFSGSGSGTDFTLTISSLQPEDFATYYCQQYNSYPLTFGQGTKLEIK
B4 was tested, and the “fold increase in affinity, IgG against parental scFv” value (BoNT/B1 [6]) was 1.5 to 25 fold and the Kd (BoNT/B1 [3]) was 335 pM.

B5: ING1 IgG (antibody, V domains shown)
VH: QVQLQQSGGGLVQPGGSLRLSCAASGFTFSNYAMTWVRQAPGKGLEWVSSISVGGSDTYYADSVKGRFTVSRDNSKNTLLLQMNSLRAEDTAVYYCAKVRTKYCSSLSCFAGFDSWGQGTRVTVSS
VL: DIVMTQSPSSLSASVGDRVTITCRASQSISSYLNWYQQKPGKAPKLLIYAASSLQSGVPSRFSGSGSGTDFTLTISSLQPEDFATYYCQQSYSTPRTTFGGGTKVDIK
B5 showed a Kd (BoNT/A1 (Hall hyper)) of 314 pM.

B6: B11 scFv (scFv)
scFv: QVQLLQSAGGVVQPGRSLRLSCAASGFIFRTYGMHWVRQAPGKGLEWVAFVSSDGNNKFYSDSVKGRFTIPRDNAKNTLYLQMNSLETEDTAVYYCAKDRYPIDCSGGSCFSYGMDVWGQGTTVTVSSGGGGSGGGGSGGGGSDIVMTQSPSTLSASVGDRVTVTCRASQSINSWLAWYQQKPGKAPKLLIYEASSLESGVPSRFSGSGSGTEFTLTISSLQPDDFATYYCQQYDSYWLTFGGGTKVEIK
With B6 the Kd (BoNT/B1 [4]) was 2620 pM and the Kd (BoNT/B1 [5]) was 2620 pM.

B7: 1B11 scFv (scFv)
chain: QVQLLQSAGGVVQPGRSLRLSCAASGFIFRTYGMHWVRQAPGKGLEWVAFVSSDGNNKFYSDSVKGRFTIPRDNAKNTLYLQMNSLETEDTAVYYCAKDRYPIDCSGGSCFSYGMDVWGQGTTVTVSSGGGGSGGGGSGGGGSDIVMTQSPSTLSASVGDRVTVTCRASQSINSWLAWYQQKPGKAPKLLIYEASSLESGVPSRFSGSGSGTEFTLTISSLQPDDFATYYCQQYDSYWLTFGGGTKVEIK
Binder B7 has a Kd (BoNT/B1 [1]) of 2600 pM and a Kd (BoNT/B3) of 4430 pM.

B8: B6.1 Fab (Fab, V domains shown)
VH: QVQLVQSGAEVKKPGESLVISCKASGDKDTFTSFWIAWVRQMPGKGLEWMGIIYAGDSDTRYSPSFQGHVNISVDRSTNTAYLQWSSLKASDTAMYYCARHDSRYKYFYFGMDVWGQGTTVTVSS
VL: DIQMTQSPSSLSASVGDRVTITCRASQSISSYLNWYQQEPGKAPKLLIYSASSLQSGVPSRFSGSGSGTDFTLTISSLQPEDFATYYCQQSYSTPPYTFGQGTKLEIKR
For B8, the “KD wild type/KD matured” value (BoNT/B1 [7]) was 9 fold, the Kd (BoNT/B1 [8]) was 286 pM and the Kd (BoNT/B1 [9]) was 286 pM.

B9: B6.1 IgG (antibody, V domains shown)
VH: QVQLVQSGAEVKKPGESLVISCKASGDKDTFTSFWIAWVRQMPGKGLEWMGIIYAGDSDTRYSPSFQGHVNISVDRSTNTAYLQWSSLKASDTAMYYCARHDSRYKYFYFGMDVWGQGTTVTVSS
VL: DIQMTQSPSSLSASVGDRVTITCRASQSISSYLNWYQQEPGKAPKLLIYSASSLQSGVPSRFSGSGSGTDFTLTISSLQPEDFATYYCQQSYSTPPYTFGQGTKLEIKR
B9 was tested, and the “fold increase in affinity, IgG against yeast displayed Fab” value (BoNT/B1 [6]) was 42 fold and the Kd (BoNT/B1 [10]) was 6.82 pM.

B10: B6.C12 Fab (Fab, V domains shown)
VH: QVQLVQSGAEVKKPGESLVISCKASGDKDTFTSFWIAWVRQMPGKGLEWMGIIYAGDSDTRYSPSFQGHVNISVDRSTNTAYLQWSSLKASDTAMYYCARHDSRYKYFYFGMDVWGQGTTVTVSS
VL: DIVMTQSPSSLSASVGDRVTITCRASQSISSYLNWYQQKPGKAPKLLIYAASSLQSGVPSRFSGSGSGTDFTLTISSLQPEAFATYYCQQSYTAPCTFGQGTKLEIK
In the case of B10, the “KD wild type/KD matured” value (BoNT/B1 [7]) is reported as 7 fold and the Kd (BoNT/B1 [8]) is reported as 405 pM.

B11: B6.D2 Fab (Fab, V domains shown)
VH: QVQLVQSGAEVKKPGESLVISCKASGDKDTFTSFWIAWVRQMPGKGLEWMGIIYAGDSDTRYSPSFQGHVNISVDRSTNTAYLQWSSLKASDTAMYYCARHDSRYKYFYFGMDVWGQGTTVTVSS
VL: DVVMTQSPCLPCLHLIGDRVTITCRASQSIRDYLSWYQQEPGKAPKLLIYSASSLQSGVPSRFSGSGSGTDFTLTITNLQPEDFATYYCLEKYSFPRCTFGQGTKLDIKR
With B11 the “KD wild type/KD matured” value (BoNT/B1 [7]) was 11 fold and the Kd (BoNT/B1 [8]) was 254 pM.

B12: B11E8 scFv (scFv)
scFv: EVQLVQSGGGVVQPGRSLRLSCAASGFIFRTYGMHWVRQAPGKGLEWVAFVSSDGNNKFYSDSVKGRFTISRDNAKNTLYLQMNSLETEDTAMYYCAKDRYPIDCSGGSCFSYGMDVWGQGTTVTVSSGGGGSGGGGSGGGGSEIVLTQSPATLSVSPGERATLSCRASQSVSKFLAWYQQKRGQAPRLLIYGASTRATGIPARFSGSGSGTEFALTISSLQSEDFADYYCQQYDNWPITFGQGTRLEIK
For B12, the Kd (BoNT/B1 [5]) was 193 pM.

B13: 1B18 IgG (antibody, V domains shown)
VH: EVQLVQSGGGLVQPGGSRRLSCAASGFYFNAYWMTWVRQAPGKGLEWVANINLDGTEIYYLDSVKGRFTVSRDNVKNSVFLQMSSLRVEDTAVYFCARLEWGGRNGWVSPWGQGTLVTVSS
VL: DVVMTQSPSSVSASVGDRVTITCRASQSISSYLNWYQQRPGKAPKLLIFAASSLQSAVPSRFSGSGSGTDFTLTISSLQPEDFATYYCQQSYSTPPTFGQGTKVEIKR
B13 was tested, and the Kd (BoNT/B1 [3]) was 816 pM.

B14: B11E8 IgG (antibody, V domains shown)
VH: EVQLVQSGGGVVQPGRSLRLSCAASGFIFRTYGMHWVRQAPGKGLEWVAFVSSDGNNKFYSDSVKGRFTISRDNAKNTLYLQMNSLETEDTAMYYCAKDRYPIDCSGGSCFSYGMDVWGQGTTVTVSS
VL: EIVLTQSPATLSVSPGERATLSCRASQSVSKFLAWYQQKRGQAPRLLIYGASTRATGIPARFSGSGSGTEFALTISSLQSEDFADYYCQQYDNWPITFGQGTRLEIKR
In the case of B14, the “fold increase in affinity, IgG against yeast displayed Fab” value (BoNT/B1 [6]) is reported as 4.85 fold and the Kd (BoNT/B1 [10]) is reported as 6.59 pM.
